From patent publication US10577406B2, “FKBP-L polypeptides and uses in angiogenesis-mediated disorders” (ALMAC DISCOVERY LIMITED, priority 2006, dated 2020)

Key:
[1] = test system: PC3 (prostate tumor cell line; CD44 +ve); experiment: tumor cell migration, wound closure assay, PC3; assay type: cell-based; settings: for effect on tumor cell migration: PC3
Procedure: In these experiments, the effect of recombinant FKBP-L on tumor cell migration was assessed. The in vitro migration assay used in these studies is a modified version of the method described by Ashton et al (1999) see supra. PC3, MDA231, and HT29 tumor cells were plated into individual chambers on a glass slide and grown to 90% confluence overnight. The medium was removed and the monolayers wounded. The monolayer was re-supplemented with fresh medium and the required volume of His-tagged recombinant FKBP-L protein (SEQ ID NO: 1) was added to give the final concentrations shown. The monolayers were incubated for 24 hours and then fixed in 4% PBS buffered paraformaldehyde.
The extent of “wound” closure was blindly assessed microscopically by an independent investigator and quantified using a calibrated eyepiece graticule (1 mm/100 μm graduation) at 20× magnification (Olympus BX 50). The extent of closure in the FKBP-L treated slides was compared to time matched sham-treated controls and the percent inhibition of wound closure compared to time matched controls calculated.
The in vitro migration assay used in these studies is a modified version of the method described by Ashton et al. (1999) see supra. PC3 (prostate tumor cell line; CD44 positive; CD44 +ve), MDA231 (breast tumor cell line; CD44 +ve), HT29 (Colorectal tumor cell line; CD44 +ve), MCF-7 (breast tumor cell line; CD44 negative; CD44 −ve) and DU145 (prostate tumor cell line; CD44 −ve) were plated into individual chambers on a glass slide and grown to 90% confluence overnight. The medium was removed and the monolayers wounded. […] The monolayers were incubated for 24 h and then fixed in 4% PBS buffered paraformaldehyde.
The extent of “wound” closure was blindly assessed microscopically by an independent investigator and quantified using a calibrated eyepiece graticule (1 mm/100 μm graduation) at 20× magnification (Olympus BX 50). The extent of closure in the FKBP-L treated slides was compared to time matched sham treated controls and the % inhibition of wound closure compared to time matched controls calculated.
PC3 cells were transfected for 72 h with either sicontrol non-targeting siRNA (SCR siRNA) (Dharmacon, Cat #D-001210-01-05) or CD44 targeted siRNA (CD44siRNA) (Dharmacon, Cat #009999). Briefly, 1.2×10^6 PC3 cells were seeded into two P90 dishes and incubated at 37° C. for 24 h. To transfect, 150 μl of the either sicontrol non-targeting siRNA or CD44 targeting siRNA (2 μM) was added to 450 μl of serum free medium (Tube 1). […] The monolayer was fixed after a further 24 h and the extent of wound closure was blindly assessed using a calibrated graticule. Percent inhibition of wound closure in FKBP-L-treated monolayers compared to untreated monolayers was calculated. […]

[2] = test system: bFGF-induced vessels in subcutaneously implanted polyether sponges; experiment: mouse sponge assay of angiogenesis in vivo; design: species or system C57 black mice; settings: for reduction in vessel number versus bFGF alone: day 21
Procedure: In these experiments, polyether sponges were subcutaneously implanted in C57 black mice and injected on alternate days with 10 ng bovine fibroblast growth factor (bFGF) or 10 ng bFGF+5 μg full length His-tagged recombinant FKBP-L polypeptide (SEQ ID NO: 1). After 14 days of treatment, sponges were harvested, sectioned and stained with heamatoxylin and eosin.
This experiment evalulated the ability of the FKBP-L 24mer to inhibit angiogenesis using the mouse sponge assay. Polyether sponges were subcutaneously implanted in C57 black mice on day 0 and injected on alternate days with (a) 10 ng bFGF control (3 mice) (b) 10 ng bovine fibroblast growth factor (bFGF)+5 μg full-length his-tagged recombinant FKBPL (equivalent to 3.2×10^−6 M in vitro) (3 mice) (c) 10 ng bFGF+0.35 μg FKBPL 24mer (molar equivalent of 5 μg full-length recombinant FKBPL) (3 mice) or (d) 0.11 ng FKBPL 24mer (equivalent to 10^−9 M in vitro) (3 mice).
All mice were sacrificed on day 21. Sponges were removed, fixed and paraffin embedded. Five micron sections were stained with haematoxylin and eosin. Vessels were blindly counted by 3 independent assessors using ×40 magnification in 10 fields per section. The average count per sponge/mouse was then plotted for each assessor.

Molecule	effect on tumor cell migration ([1]; 10^−14-10^−7 M, 24 h)	reduction in vessel number versus bFGF alone ([2]; 10 ng bFGF + 0.35 μg on alternate days) [%]	reduction in vessel number versus bFGF alone ([2]; lowest dose (0.11 ng, equivalent to 10^−9 M in vitro) on alternate days) [%]	effect on tumor cell migration ([1]; 24 hours)	effect on migration of CD44 siRNA treated cells ([1]; PC3 transfected with CD44 targeted siRNA, 1500 ng/ml, 24 h)	inhibition of migration (wound closure) compared to untreated monolayers ([1]; PC3 transfected with non-targeting SCR siRNA, 1500 ng/ml, 24 h) [%]	reduction in vessel number versus bFGF alone ([2]; 10 ng bFGF + 5 μg on alternate days) [%]	vessel counts versus bFGF alone ([2]; 10 ng bFGF+5 μg on alternate days, 14 days, p=0.0008)
H-QIRQQPRDPPTETLELEVSPDPAS-OH [FKBP-L 24mer]	can inhibit	80	70					
full length recombinant FKBP-L: recombinant full length his-tagged FKBP-L protein (SEQ ID NO: 1) expressed in BL21 (DE3) (protein, listed as Homo sapiens, His tag) MRGSHHHHHHGMASMTGGQQMGRDLYDDDDKDRWGSMETPPVNTIGEKDTSQPQQEWEKNLRENLDSVIQIRQQPRDPPTETLELEVSPDPASQILEHTQGAEKLVAELEGDSHKSHGSTSQMPEALQASDLWYCPDGSFVKKIVIRGHGLDKPKLGSCCRVLALGFPFGSGPPEGWTELTMGVGPWREETWGELIEKCLESMCQGEEAELQLPGHTGPPVGLTLASFTQGRDSWELETSEKEALAREERARGTELFRAGNPEGAARCYGRALRLLLTLPPPGPPERTVLHANLAACQLLLGQPQLAAQSCDRVLEREPGHLKALYRRGVAQAALGNLEKATADLKKVLAIDPKNRAAQEELGKVVIQGKNQDAGLAQGLRKMFG				inhibits tumor cell migration in a dose-dependent manner	no effect	21.7	50	significantly fewer vessels
